Measured values: patent publication US11634477 (dated 2023)
Numbering of substitutions follows the chain as printed.

B1: C019 (antibody, V domains shown)
VH: QVQLVQSGAEVKKPGASVKVSCKASGYTFTSYYMHWVRQAPGQGLEWMGIINPSGGSTSYAQKFQGRVTMTRDTSTSTVYMELSSLRSEDTAVYYCARVPREGTPGFDPWGQGTLVTVSS
VL: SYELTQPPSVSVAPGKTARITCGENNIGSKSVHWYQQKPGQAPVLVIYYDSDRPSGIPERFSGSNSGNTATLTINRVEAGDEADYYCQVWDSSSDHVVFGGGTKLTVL
B2: C006 (antibody, V domains shown)
VH: QVQLVESGGGLVKPGGSLRLSCAASGFIFSDYCMSWIRRAPGKGLEWLSYISNSGTTRYYADSVKGRFTISRDNGRNSLYLQMDSLSAEDTAVYYCARRGDGSSSIYYYNYMDVWGKGTTVTVSS
VL: not shown
B3: C021 (antibody, V domains shown)
VH: QVQLQESGPGLVKPSQTLSLTCTVSGGSISSGGYYWSWIRQHPGKGLEWIGYIYYSGSTYYNPSLKSRVTISVDTSKNQFSLKLSSVTAADTAVYYCARVWQYYDSSGSFDYWGQGTLVTVSS
VL: not shown
B4: C205 (antibody, V domains shown)
VH: QVQLVQSGAEVKKPGASVKVSCKASGHTFTSYYMHWVRQAPGQGLEWMGIINPSGGSTSYAQKFQGRVTMTRDTSTSTVYMELSSLRSEDTAVYYCARGPERGIVGATDYFDYWGQGTLVTVSS
VL: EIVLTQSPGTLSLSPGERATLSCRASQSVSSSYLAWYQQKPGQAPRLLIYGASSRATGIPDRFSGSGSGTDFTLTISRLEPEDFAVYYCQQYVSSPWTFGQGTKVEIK
B5: C122 (antibody, V domains shown)
VH: EVQLVESGGGLIQPGGSLRLSCAASGLTVSSNYMSWVRQAPGKGLEWVSVLYSGGSSFYADSVKGRFTISRDNSKNTLYLQMNSLRAEDTAVYYCARESGDTTMAFDYWGQGTLVTVSS
VL: DIQLTQSPSFLSASVGDRVTITCRASQGISSYLAWYQQKPGKAPKLLIYAASTLQSGVPSRFSGSGSGTEFTLTISSLQPEDFATYYCQQLNSDSYTFGQGTKLEIK
B6: C107 (antibody, V domains shown)
VH: QVQLVQSGAEVKKPGASVRVSCKASGYTFTSYGFSWVRQAPGQGLEWMGWISAYNGNTNFAQKLQGRVTMTTDTSTSTAYMELRSLRSDDTAVYYCARGEAVAGTTGFFDYWGQGTLVTVSS
VL: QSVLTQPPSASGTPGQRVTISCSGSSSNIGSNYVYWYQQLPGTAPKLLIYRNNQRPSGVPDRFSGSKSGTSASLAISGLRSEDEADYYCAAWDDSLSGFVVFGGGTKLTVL
B7: C201 (antibody, V domains shown)
VH: EVQLVESGGGLVQPGRSLRLSCAASGFTFDDYAMHWVRQAPGKGLEWVSGISWNSGSIGYADSVKGRFTISRDNAKNSLYLQMNSLRAEDTALYYCVKGVEYSSSSNFDYWGQGTLVTVSS
VL: IRMTQSPSSVSASVGDRVTITCRASQGISSWLAWYQQKPGKAPKLLIYVESSLQSGVPSRFSGSGSGTDFTLTISSLQPEDFATYYCQQANSFPLTFGGGTKVEIK
B8: C030 (antibody, V domains shown)
VH: EVQLVESGGGVVQPGRSLRLSCAASGFTFSSYGMHWVRQAPGKGLEWVAVISYDGSNKYYADSVKGRFTISRDNSKNTLYLQMNSLRAEDTAVYYCAKASGIYCSGGNCYSYYFDYWGQGTLVTVSS
VL: not shown
B9: C005 (antibody, V domains shown)
VH: QVQLVQSGPEVKKPGTSVKVSCKASGFTFTSSAVQWVRQARGQRLEWIGWIVVGSGNTNYAQKFQERVTITRDMSTSTAYMELSSLRSEDTAVYYCAAPHCSGGSCLDAFDIWGQGTMVTVSS
VL: not shown
B10: C116 (antibody, V domains shown)
VH: QVQLVESGGGVVQPGRSLRLSCAASGFTYSTYAMHWVRQAPGKGLEWVAFISYDGSNKYYADSVKGRFTISRDNSKNTLYLQMNSLRAEDTAVYYCARDFYHNWFDPWGQGTLVTVSS
VL: NFMLTQPHSVSESPGKTVTISCTGSSGSIASNYVQWYQQRPGSAPTTVIYEDNQRPSGVPDRFSGSIDRSSNSASLTISGLKTEDEADYYCQSYDSGNHWVVFGGGTRLTVL
B11: C121 (antibody, V domains shown)
VH: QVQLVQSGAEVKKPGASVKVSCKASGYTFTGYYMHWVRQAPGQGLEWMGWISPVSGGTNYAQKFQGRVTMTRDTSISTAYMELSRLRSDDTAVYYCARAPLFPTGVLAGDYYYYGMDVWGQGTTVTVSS
VL: QSALTQPASVSGSPGQSITISCTGTSSDVGSYNLVSWYQQHPGKAPKLMIYEGSKRPSGVSNRFSGSKSGNTASLTISGLQAEDEADYYCCSYAGSSTLVFGGGTKLTVL
B12: C141 (antibody, V domains shown)
VH: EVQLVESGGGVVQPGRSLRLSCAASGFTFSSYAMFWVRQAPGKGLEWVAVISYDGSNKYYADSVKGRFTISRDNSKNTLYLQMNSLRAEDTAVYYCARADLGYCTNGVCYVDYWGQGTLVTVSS
VL: NFMLTQPHSVSESPGKTVTISCTGSSGSIASNYVQWYQQRPGSAPTTVIYEDNQRPSGVPDRFSGSIDSSSNSASLTISGLKTEDEADYYCQSYDSSNWVFGGGTKLTVL
B13: C216 (antibody, V domains shown)
VH: EVQLVESGGGLVQPGGSLRLSCAASGFTFSSYDMHWVRQATGKGLEWVSAIGTAGDTYYPDSVKGRFTISRENAKNSLYLQMNSLRAGDTAVYYCARDRGSSGWYGWYFDLWGRGTLVTVSS
VL: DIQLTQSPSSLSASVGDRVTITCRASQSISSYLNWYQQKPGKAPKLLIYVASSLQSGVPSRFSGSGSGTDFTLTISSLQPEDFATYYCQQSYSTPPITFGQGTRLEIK
B14: C117 (antibody, V domains shown)
VH: QVQLVESGGGVVQPGRSLRLSCAASGFTFSTYAMHWVRQAPGEGLEWVAVISYDGSNTYYADSVKGRFTISRDNSKNTLYLQMNSLRAEDTAVYYCARDPIWFGELLSPPFVHFDYWGQGTLVTVSS
VL: QSVLTQPPSVSAAPGQKVTISCSGSSSNIGNNLVSWYQQLPGTAPKLLIYENNKRPSGIPDRFSGSKSGTSATLGITGLQTGDEADYYCGAWDSSLSAGGVYVFGTGTKVTVL
B15: C164 (antibody, V domains shown)
VH: EVQLVESGGGLVQPGGSLRLSCAASGFSVSTKYMTWVRQAPGKGLEWVSVLYSGGSDYYADSVKGRFTISRDNSKNALYLQMNSLRVEDTGVYYCARDSSEVRDHPGHPGRSVGAFDIWGQGTMVTVSS
VL: QSALTQPASVSGSPGQSITISCTGTSNDVGSYTLVSWYQQYPGKAPKLLIFEVTKRSSGISNRFSGSKSGNTASLTISGLQGEDEADYYCCSYAGASTFVFGGGTKLTVL
B16: C123 (antibody, V domains shown)
VH: EVQLVESGGGLIQPGGSLRLSCAASGVTVSRNYMSWVRQAPGKGLEWVSVIYSGGSTYYADSVKGRFTISRDNSKNTLYLQMNSLRAEDTAVYYCARDLSAAFDIWGQGTMVTVSS
VL: B5 VL with D94Y, S95P, Y96P, T97A, K103R
B17: C154 (antibody, V domains shown)
VH: QVQLVESGGGVVQPGRSLRLSCAASGFTFSRYGMHWVRQAPGKGLEWVAVMSYDGSSKYYADSVKGRFTISRDNSKNTLCLQMNSLRAEDTAVYYCAKQAGPYCSGGSCYSAPFDYWGQGTLVTVSS
VL: DIQMTQSPSSLSASVGDRVTITCQASQGISNYLNWYQQKPGKAPKLLIYDASNLETGVPSRFSGSGSGTDFTFTISSLQPEDIATYYCQQYDNLPITFGQGTRLEIK
B18: C022 (antibody, V domains shown)
VH: QVQLQESGPGLVKPSETLSVTCTVSGGSISSSRYYWGWIRQPPGKGLEWIGSIYYSGSTYYNPSLKSRVTISVDTSKNQFSLKLSSVTAADTAVYYCARHAAAYYDRSGYYFIEYFQHWGQGTLVTVSS
VL: DIQMTQSPSTLSASVGDSVTITCRASQSISSWLAWYQQKPGKAPKLLIYKASSLESGVPSRFSGSGSGTEFTLTISSLQPDDFATYYCQQYNNYRYTFGQGTKLEIK

The binders below were run against SARS-CoV-2 RBD (SARS-CoV-2, UniProt P0DTC2) (assay: ELISA).

Binder | EC50
B1 | 11.8 ng/mL
B2 | 1.81 ng/mL
B3 | 1.25 ng/mL
B4 | > 1000 ng/mL
B5 | 2.67 ng/mL
B6 | 11.6 ng/mL
B7 | 2.98 ng/mL
B8 | 2.89 ng/mL
B9 | 4.41 ng/mL
B10 | 37.6 ng/mL
B11 | 2.85 ng/mL
B12 | 1.71 ng/mL
B13 | 9.53 ng/mL
B14 | 5.38 ng/mL
B15 | 2.06 ng/mL
B16 | 1.92 ng/mL
B17 | 2.92 ng/mL
B18 | 2.4 ng/mL

The binders below were run against SARS-CoV RBD (SARS-CoV, UniProt P59594) (assay: ELISA).

Binder | EC50
B1 | > 1000 ng/mL
B2 | > 1000 ng/mL
B3 | > 1000 ng/mL
B4 | > 1000 ng/mL
B5 | > 1000 ng/mL
B6 | > 1000 ng/mL
B7 | > 1000 ng/mL
B8 | > 1000 ng/mL
B9 | > 1000 ng/mL
B10 | > 1000 ng/mL
B11 | > 1000 ng/mL
B12 | > 1000 ng/mL
B13 | > 1000 ng/mL
B14 | > 1000 ng/mL
B15 | > 1000 ng/mL
B16 | > 1000 ng/mL
B17 | 10.7 ng/mL
B18 | 5.99 ng/mL
